Laboratory results published in patent US20230272045A1 (published 2023).
Like-named read-outs stand apart in the source and are kept apart here.

T1: human vitronectin (human, UniProt P04004 20-478)
T1 chain: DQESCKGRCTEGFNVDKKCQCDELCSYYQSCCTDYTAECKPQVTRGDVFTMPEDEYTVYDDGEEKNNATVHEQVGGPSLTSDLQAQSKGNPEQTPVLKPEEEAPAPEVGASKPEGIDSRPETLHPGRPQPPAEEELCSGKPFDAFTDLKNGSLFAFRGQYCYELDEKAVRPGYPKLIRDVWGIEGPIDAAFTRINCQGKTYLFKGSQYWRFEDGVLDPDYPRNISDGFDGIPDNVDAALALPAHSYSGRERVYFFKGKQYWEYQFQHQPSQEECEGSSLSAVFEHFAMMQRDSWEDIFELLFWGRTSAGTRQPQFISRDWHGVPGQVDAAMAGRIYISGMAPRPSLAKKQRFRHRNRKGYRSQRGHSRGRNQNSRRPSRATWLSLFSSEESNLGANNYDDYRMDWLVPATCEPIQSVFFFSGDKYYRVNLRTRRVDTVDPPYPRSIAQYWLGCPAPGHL

T2: human fibrinogen (human, UniProt P02671 20-644; P02675 31-491; P02679 27-437)
T2 chain 1: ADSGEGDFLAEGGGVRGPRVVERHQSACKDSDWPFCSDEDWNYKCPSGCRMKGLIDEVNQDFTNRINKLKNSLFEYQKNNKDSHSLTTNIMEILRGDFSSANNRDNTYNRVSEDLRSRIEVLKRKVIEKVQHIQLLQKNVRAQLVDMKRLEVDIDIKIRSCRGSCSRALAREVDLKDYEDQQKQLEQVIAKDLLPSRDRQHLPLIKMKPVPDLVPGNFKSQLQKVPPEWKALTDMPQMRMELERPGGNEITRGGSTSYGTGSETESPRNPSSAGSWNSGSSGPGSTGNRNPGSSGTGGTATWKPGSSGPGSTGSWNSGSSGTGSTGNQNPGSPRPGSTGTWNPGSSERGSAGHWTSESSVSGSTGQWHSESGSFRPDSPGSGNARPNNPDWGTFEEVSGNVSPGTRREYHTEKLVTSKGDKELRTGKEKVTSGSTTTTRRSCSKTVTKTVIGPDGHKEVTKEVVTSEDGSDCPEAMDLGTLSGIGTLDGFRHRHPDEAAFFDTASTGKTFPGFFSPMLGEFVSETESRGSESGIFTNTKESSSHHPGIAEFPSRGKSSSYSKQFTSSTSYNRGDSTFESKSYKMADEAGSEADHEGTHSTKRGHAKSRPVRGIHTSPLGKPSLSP
T2 chain 2: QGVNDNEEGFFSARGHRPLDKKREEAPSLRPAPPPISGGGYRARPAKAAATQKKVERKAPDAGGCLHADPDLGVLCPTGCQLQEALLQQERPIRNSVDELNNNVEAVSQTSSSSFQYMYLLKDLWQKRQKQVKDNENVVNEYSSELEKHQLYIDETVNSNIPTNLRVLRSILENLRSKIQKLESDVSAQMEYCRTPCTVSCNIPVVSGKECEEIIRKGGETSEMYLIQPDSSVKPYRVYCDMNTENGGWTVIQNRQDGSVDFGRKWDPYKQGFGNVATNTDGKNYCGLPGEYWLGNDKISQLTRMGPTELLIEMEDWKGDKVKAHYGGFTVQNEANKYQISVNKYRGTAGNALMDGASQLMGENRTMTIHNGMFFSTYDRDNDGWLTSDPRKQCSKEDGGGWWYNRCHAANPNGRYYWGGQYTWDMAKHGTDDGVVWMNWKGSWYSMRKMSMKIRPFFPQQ
T2 chain 3: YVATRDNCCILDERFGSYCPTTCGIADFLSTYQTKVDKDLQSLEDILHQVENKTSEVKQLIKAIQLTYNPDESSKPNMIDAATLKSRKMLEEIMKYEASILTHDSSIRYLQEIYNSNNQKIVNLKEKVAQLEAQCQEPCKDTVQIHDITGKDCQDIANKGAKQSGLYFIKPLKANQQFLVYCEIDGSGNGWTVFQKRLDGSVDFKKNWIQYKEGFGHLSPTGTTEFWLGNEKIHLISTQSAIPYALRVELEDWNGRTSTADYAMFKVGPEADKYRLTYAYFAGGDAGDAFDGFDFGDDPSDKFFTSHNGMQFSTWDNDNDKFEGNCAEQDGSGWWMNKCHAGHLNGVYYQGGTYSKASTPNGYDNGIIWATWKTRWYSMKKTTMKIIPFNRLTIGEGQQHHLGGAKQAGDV

B1: PDGF-BB (murine wild-type platelet-derived growth factor-BB) (ligand)
chain: SLGSLAAAEPAVIAECKTRTEVFQISRNLIDRTNANFLVWPPCVEVQRCSGCCNNRNVQCRASQVQMRPVQVRKIEIVRKKPIFKKATVTLEDHLACKCETIVTPRPVT
B2: BMP-2 (bone morphogenetic protein-2, Peprotech) (ligand)
chain: QAKHKQRKRLKSSCKRHPLYVDFSDVGWNDWIVAPPGYHAFYCHGECPFPLADHLNSTNHAIVQTLVNSVNSKIPKACCVPTELSAISMLYLDENEKVVLKNYQDMVVEGCGCR

Assays:
Experiment in all cases: ELISA
[1] = biological target: T1, human vitronectin
[2] = biological target: T3, human plasma fibronectin (human, UniProt P02751 32-2296)
T3 sequence (P02751 other isoform, or with tags, fused parts or gaps): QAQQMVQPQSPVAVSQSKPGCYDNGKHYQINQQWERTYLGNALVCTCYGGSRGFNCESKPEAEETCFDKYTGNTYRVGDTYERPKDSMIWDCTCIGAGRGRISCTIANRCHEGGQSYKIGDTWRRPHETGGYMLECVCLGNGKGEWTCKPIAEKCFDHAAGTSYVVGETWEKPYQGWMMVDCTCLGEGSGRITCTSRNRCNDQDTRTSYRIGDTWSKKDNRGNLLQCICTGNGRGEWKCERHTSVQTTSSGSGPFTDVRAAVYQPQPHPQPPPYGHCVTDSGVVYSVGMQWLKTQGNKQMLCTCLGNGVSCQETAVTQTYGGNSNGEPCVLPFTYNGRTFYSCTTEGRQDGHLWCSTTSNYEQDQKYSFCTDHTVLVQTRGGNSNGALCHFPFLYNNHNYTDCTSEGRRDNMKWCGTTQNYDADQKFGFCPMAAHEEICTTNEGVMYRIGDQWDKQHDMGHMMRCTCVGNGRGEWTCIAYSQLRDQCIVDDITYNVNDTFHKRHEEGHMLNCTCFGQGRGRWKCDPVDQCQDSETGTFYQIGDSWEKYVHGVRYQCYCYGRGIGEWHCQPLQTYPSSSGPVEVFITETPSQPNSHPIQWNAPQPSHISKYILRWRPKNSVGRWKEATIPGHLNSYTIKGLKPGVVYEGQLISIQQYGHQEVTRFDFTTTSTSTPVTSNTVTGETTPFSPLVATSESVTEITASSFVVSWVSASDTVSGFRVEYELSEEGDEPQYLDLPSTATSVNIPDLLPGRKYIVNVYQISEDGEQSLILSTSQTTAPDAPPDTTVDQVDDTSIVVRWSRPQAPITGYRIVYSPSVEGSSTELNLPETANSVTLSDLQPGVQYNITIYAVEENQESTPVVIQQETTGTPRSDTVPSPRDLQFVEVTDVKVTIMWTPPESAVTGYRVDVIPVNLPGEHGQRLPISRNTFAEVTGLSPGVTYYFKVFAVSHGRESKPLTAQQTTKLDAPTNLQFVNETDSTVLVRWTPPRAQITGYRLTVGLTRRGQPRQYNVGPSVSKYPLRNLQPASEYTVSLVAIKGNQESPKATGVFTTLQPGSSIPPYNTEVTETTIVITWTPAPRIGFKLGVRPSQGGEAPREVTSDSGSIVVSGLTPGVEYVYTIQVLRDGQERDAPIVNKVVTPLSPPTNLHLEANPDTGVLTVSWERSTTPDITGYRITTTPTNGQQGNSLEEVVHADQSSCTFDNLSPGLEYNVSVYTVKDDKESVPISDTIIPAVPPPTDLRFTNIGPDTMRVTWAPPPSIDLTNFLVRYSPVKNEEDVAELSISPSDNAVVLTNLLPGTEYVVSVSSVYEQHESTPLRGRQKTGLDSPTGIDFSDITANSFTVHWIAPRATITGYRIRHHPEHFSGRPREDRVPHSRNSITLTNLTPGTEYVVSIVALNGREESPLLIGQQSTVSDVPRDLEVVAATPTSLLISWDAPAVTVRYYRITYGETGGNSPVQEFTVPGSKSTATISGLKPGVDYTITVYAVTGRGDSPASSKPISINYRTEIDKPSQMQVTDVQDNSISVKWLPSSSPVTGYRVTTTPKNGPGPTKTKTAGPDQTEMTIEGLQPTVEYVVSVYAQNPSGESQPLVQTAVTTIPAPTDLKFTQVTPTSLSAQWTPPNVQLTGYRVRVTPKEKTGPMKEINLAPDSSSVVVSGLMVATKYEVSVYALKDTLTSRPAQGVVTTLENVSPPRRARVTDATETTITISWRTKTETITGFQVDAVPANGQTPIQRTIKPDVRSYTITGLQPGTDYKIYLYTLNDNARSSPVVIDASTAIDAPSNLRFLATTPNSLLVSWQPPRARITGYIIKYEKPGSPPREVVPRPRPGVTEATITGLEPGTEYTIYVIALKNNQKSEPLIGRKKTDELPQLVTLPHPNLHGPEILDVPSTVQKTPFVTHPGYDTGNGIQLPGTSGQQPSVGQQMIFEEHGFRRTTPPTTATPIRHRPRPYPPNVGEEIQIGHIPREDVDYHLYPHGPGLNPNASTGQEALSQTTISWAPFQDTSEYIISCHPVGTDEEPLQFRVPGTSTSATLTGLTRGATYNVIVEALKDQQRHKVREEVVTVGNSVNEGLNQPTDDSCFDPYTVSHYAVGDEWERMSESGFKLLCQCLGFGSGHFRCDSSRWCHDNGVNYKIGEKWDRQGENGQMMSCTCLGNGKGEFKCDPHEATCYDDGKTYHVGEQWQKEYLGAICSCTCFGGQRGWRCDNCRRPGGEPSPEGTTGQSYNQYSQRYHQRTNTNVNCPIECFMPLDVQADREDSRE

[3] = biological target: T2, human fibrinogen
[4] = biological target: T1, human vitronectin
[5] = biological target: human tenascin C (human, UniProt P24821 23-2201)
Chain of human tenascin C (P24821 23-2201): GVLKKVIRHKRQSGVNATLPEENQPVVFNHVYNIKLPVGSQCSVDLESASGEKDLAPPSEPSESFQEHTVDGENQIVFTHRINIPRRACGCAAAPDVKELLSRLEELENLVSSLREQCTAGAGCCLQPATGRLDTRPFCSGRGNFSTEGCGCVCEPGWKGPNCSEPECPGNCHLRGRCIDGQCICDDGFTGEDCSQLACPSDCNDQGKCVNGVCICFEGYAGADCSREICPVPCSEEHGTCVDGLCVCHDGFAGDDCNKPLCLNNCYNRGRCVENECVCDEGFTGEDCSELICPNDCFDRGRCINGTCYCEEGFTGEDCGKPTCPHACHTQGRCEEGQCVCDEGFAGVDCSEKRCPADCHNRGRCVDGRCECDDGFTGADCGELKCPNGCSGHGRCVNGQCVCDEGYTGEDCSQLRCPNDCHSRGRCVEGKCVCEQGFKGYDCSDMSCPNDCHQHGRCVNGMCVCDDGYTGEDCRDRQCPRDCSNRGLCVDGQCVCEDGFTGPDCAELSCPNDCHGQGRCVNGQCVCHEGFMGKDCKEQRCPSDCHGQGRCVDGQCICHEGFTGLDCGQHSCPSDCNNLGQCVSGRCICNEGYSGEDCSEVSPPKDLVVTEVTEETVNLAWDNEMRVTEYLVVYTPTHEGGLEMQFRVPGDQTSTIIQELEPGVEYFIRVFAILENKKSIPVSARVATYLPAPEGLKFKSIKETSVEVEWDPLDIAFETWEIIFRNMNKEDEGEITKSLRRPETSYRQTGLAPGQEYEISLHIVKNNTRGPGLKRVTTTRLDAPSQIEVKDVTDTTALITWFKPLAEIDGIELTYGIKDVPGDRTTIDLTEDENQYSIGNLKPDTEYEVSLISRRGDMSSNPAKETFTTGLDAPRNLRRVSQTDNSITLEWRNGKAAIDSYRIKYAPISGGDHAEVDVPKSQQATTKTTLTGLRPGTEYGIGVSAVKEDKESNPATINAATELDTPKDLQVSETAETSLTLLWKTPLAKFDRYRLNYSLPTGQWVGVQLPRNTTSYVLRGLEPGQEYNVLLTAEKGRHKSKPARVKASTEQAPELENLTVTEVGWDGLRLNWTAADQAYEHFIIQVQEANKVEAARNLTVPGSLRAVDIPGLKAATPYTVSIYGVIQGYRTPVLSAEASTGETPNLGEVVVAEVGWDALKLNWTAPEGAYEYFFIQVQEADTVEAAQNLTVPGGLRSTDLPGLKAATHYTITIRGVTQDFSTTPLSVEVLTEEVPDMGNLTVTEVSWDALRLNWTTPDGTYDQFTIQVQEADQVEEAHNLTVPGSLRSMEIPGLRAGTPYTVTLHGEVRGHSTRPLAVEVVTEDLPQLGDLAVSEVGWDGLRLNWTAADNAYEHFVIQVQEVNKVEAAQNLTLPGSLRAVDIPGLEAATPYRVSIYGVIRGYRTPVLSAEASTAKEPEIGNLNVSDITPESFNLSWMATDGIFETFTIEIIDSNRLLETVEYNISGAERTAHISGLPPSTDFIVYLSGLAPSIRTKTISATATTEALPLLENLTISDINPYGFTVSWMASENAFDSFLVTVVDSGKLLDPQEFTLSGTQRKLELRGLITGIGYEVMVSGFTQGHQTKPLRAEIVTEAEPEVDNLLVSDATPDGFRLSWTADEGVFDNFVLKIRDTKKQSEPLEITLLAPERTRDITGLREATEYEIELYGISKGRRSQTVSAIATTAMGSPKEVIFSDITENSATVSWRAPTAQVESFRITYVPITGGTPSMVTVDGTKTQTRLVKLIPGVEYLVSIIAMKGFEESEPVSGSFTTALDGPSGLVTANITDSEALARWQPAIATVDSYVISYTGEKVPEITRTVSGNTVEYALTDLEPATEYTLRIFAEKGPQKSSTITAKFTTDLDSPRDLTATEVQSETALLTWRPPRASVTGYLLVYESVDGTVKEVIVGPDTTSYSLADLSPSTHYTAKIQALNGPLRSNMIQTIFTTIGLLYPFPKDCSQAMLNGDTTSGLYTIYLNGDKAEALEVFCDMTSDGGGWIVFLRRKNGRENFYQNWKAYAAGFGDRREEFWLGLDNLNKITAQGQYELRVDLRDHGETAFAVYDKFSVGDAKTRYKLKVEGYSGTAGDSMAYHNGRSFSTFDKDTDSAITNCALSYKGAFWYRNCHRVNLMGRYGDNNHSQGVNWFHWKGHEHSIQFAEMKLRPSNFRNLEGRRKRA

[6] = biological target: T3, human plasma fibronectin; remark: listed apart in the source

| Binder | Kd [1] [nM] | Kd [2] [nM] | Kd [3] [nM] | Kd [4] [nM] | Kd [5] [nM] | Kd [6] [nM] |
| --- | --- | --- | --- | --- | --- | --- |
| B1 | 29.8 | 60.2 | – | – | – | – |
| B2 | – | – | 46.4 | 12.6 | 19.5 | 49.9 |
